Results on 1 molecule are retold here after patent US20250043001A1 (published 2025).

This test concerns the target human CD28 (human, UniProt P10747 19-152). The test can be described thus: -; scFv VHVL.

B1: 1A7_H1.14_L1 (antibody, V domains shown)
VH: EVQLLESGGGLVQPGGSLRLSCAASGFTFSSYYMSWVRQAPGKGLEWVSTISESGDSTYYADSVKGRFTISRDNSKNTLYLQMNSLRAEDTAVYYCAKSGPGLRQVGFDYWGQGTLVTVSS
VL: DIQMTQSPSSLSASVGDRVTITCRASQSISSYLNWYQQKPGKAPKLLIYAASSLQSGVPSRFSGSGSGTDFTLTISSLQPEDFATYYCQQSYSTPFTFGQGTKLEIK
With B1, the Kd turned out to be 230 nM. That is a sub-micromolar value.
